# Experimental data taken from patent publication US20230181640A1 (SHANGHAI ABELZETA, published 2023).
# T1: human BCMA on cells (L-BCMA+, K562-BCMA+, A549-BCMA-1D6) (human, UniProt Q02223 1-184)
# T1 construct: whole, on cells; the cell line of each assay is named under assay; also called L-BCMA-1E6-A4; K562-BCMA-B22D8
# T1 sequence (looked up): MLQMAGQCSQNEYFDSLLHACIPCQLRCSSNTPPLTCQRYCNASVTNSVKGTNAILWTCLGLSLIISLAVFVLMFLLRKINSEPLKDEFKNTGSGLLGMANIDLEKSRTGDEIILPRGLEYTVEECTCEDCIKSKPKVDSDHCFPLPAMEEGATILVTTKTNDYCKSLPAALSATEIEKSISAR
# B1: hBCMA-ECD-Fc (fusion protein of human BCMA extracellular domain Met1-Ala54 and human IgG1 Fc fragment Pro100-Lys330) (Fc fusion, UniProt Q02223 1-54, looked up)
# chain: MLQMAGQCSQNEYFDSLLHACIPCQLRCSSNTPPLTCQRYCNASVTNSVKGTNA
# notes: range 1-54; also the immunogen; also called soluble extracellular domain of human BCMA; not shown: human IgG1 Fc fragment, Pro100-Lys330
# What was measured:
# [1] = molecular target: T2, hybridoma antibody 6G10-1D7 (mAb001); experiment: flow cytometry competition: hBCMA-ECD-Fc against K562-BCMA+ cells for mAb001 at 1 µg/ml
# T2 construct: tested as supernatant and purified; also called CP01
# T2 sequence (VH, as listed by the source, chain 1 of 2): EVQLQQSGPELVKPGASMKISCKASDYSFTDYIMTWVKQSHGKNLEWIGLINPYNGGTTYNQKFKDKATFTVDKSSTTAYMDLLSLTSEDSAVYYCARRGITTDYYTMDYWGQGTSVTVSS
# T2 sequence (VL, as listed by the source, chain 2 of 2): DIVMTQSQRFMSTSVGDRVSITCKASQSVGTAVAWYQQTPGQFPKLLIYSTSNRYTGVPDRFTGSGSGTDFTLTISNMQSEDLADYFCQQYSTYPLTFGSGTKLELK
# [2] = molecular target: T2, hybridoma antibody 6G10-1D7 (mAb001); experiment: flow cytometry competition: BCMA of K562-BCMA+ supernatant against K562-BCMA+ cells for mAb001 at 1 µg/ml
# [3] = molecular target: T1, human BCMA on cells (L-BCMA+, …); experiment: FACS, chimeric antibody supernatant, L-BCMA+ cells
# [4] = molecular target: B1; experiment: ELISA, chimeric antibody supernatant
Binder,FACS (MFI) [3] [MFI],ELISA (OD450 nm) [4] [OD450],further results
B1,,,IC50 [1]: 0.731 µg/mL; molar ratio at IC50 [1]: 1.7 molar ratio (:1)
"BCMA of K562-BCMA+ medium supernatant (soluble BCMA) (receptor, UniProt Q02223 1-54, looked up) MLQMAGQCSQNEYFDSLLHACIPCQLRCSSNTPPLTCQRYCNASVTNSVKGTNA",,,IC50 [2]: 0.466 µg/mL; molar ratio at IC50 [2]: 10.4 molar ratio (:1)
"chimeric antibody 107A9A4D2VH/VL-2 (antibody, human IgG1, kappa, V domains shown, IgG1,κ chimeric antibody, HEK 293T supernatant; also called 107A9A4D2VH paired with 107A9A4D2VL-2) VH: EVQLQQSGPVLVKPGASVKMSCKASGYTFTDLYMNWLKQSHGKRLEWIGVINPYNGGTSYNQKFKGKATLTVDKSSSTAYMDLNSLTSEDSAVYYCARGDSIYVMDYWGQGTSFTVSS VL: not shown",525,2.45,
"chimeric antibody 107A9A4D2VH/VL-1 (antibody, human IgG1, kappa, V domains shown, IgG1,κ chimeric antibody, HEK 293T supernatant; also called 107A9A4D2VH paired with 107A9A4D2VL-1) VH: EVQLQQSGPVLVKPGASVKMSCKASGYTFTDLYMNWLKQSHGKRLEWIGVINPYNGGTSYNQKFKGKATLTVDKSSSTAYMDLNSLTSEDSAVYYCARGDSIYVMDYWGQGTSFTVSS VL: ENVLTQSPAIMSASPGEKVTMTCSASSSVSYMHWYQQKSSTSPKLWIYDTSKLSSGVPGRFSGSGSGKSYSLTISSMEAEDVATYYCFQGSGYPLFTFGSGTKLEIKR",42.5,0.13,
"chimeric antibody of hybridoma 105C10F1 (antibody, human IgG1, kappa, V domains shown, IgG1,κ chimeric antibody, HEK 293T supernatant) VH: EVKLLQSGGGLVQPGGSLKLSCAASGIDFSRYWMSWVRRAPGKGLEWIGEINPDSSTINYAPSLKDKFIISRDAAKNTLYLQMSKVRSEDTALYYCATLYYDYDGDYAMDYWGQGTSVTVSS VL: DIVMTPSQKFMSTSVGDRVSVTCKASQNVGTNVAWYQQKPGQSPKALIYSASYRYSGVPDRFTGSGSGTDFTLTISNVQSEDLAEYFCQHYNSYPFTFGSGTKLEIKR",1800,2.39,
"chimeric antibody of hybridoma 113B3F12 (antibody, human IgG1, kappa, V domains shown, IgG1,κ chimeric antibody, HEK 293T supernatant) VH: EVQLQQSGPVLVKPGASVKMSCKASGYTFTDYYMNWVKQSHGKSLEWIGVINPYNGGTDYNQKFKGKATLTVDKSSSTAYMELNSLTSEDSAVYYCARRRESYGTSYQGAYFDSWGQGTTLTVSS VL: DIQMTQTTSSLSASLGDRVTISCRASQDISNYLNWYQQKPDGTVKLLIYYTSRLHSGVPSRFSGSGSGTDYSLSISDLEQEDIATYFCQQVITLPWTFGGGTKLEIKR",37.5,0.09,
